Consider 84 variants from the RNAGym collection of RNA variant scans (doi:10.1073/pnas.2313332121).

Variants at the floor of the assay were thinned out.

B1: TPR 5TU (parent)
chain: GGAUCUUCUCGAUCUAACAAAAAAGACAAAUCUGCCACAAAGCUUGAGAGCAUCUUCGGAUGCAGAGGCGGCAGCCUUCGGUGGCGCGAUAGCGCCAACGUUCUCAACUAUGACACGCAAAACGCGUGCUCCGUUGAAUGGAGUUUAUCAUG

The variants in this data set derive from B1. As to the kind of experiment: polymerase ribozyme fitness, log enrichment relative to wild type (log ratio); higher = more active; in vitro selection for triplet polymerase activity. Summed up: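 To select mutant libraries of each subunit of a heterodimeric triplet polymerase ribozyme, built by PCR and transcribed, each was annealed with a biotinylated primer, partner subunit and triplets, then incubated frozen at −7 °C. Extended constructs were gel-excised, captured on streptavidin beads and amplified by RT-PCR, in one round carried out in triplicate. Illumina sequencing of input and output libraries kept genotypes with ≥10 input reads and ≥1 read per output. Fitness is the base-2 logarithm of genotype enrichment relative to wild-type enrichment, from inverse-variance-weighted replicate averages.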
Regarding U55G U148C, the “polymerase ribozyme fitness (log ratio)” value is -2.46.

Take U56G U90A: the “polymerase ribozyme fitness (log ratio)” value is -3.7.

In the case of C57G A60C G81C C103A U111G A119C, the “polymerase ribozyme fitness (log ratio)” value is at most -4.2.

For U56A C85A U101G G152C, the “polymerase ribozyme fitness (log ratio)” value is -4.1.

Consider U56A G62A U78C G83U, for which the “polymerase ribozyme fitness (log ratio)” value is -3.55.

Regarding U56A C87U, the “polymerase ribozyme fitness (log ratio)” value was -1.66.

For the variant U56A C75G G94A C105U G133U, the “polymerase ribozyme fitness (log ratio)” value was -4.17.

C57A C85U G143A: the “polymerase ribozyme fitness (log ratio)” value is -0.323.

As to U56A G88C C99U A119G, the “polymerase ribozyme fitness (log ratio)” value is at most -4.2.

Consider U56A A137C, for which the “polymerase ribozyme fitness (log ratio)” value is -3.11.

Regarding U56A G58U G94C U145G, the “polymerase ribozyme fitness (log ratio)” value stood at 0.0333.

U56A G58A A73U C96G: the “polymerase ribozyme fitness (log ratio)” value is -1.81.

As to C57A A97U G124A G140U, the “polymerase ribozyme fitness (log ratio)” value is -4.13.

Turning to U56A G94A A97U, the “polymerase ribozyme fitness (log ratio)” value was -1.41.

In the case of C57G C85A, the “polymerase ribozyme fitness (log ratio)” value was -3.21.

With U56G G83A C87G A120U U135C, the “polymerase ribozyme fitness (log ratio)” value was at most -4.2.

Take U56A U82G C96U A120G: the “polymerase ribozyme fitness (log ratio)” value was -0.394.

U56A A73U G140A: the “polymerase ribozyme fitness (log ratio)” value is -4.06.

With C57A G59C, the “polymerase ribozyme fitness (log ratio)” value is 0.0811.

As for U56A C87U C131G, the “polymerase ribozyme fitness (log ratio)” value is -3.21.

For C57G G59A, the “polymerase ribozyme fitness (log ratio)” value is -0.436.

As to U56G C96A, the “polymerase ribozyme fitness (log ratio)” value is -1.15.

As for U56A U101G U144C, the “polymerase ribozyme fitness (log ratio)” value is -0.262.

For the variant C57G A91U A147U, the “polymerase ribozyme fitness (log ratio)” value is at most -4.2.

For the variant C57A C96U U146G, the “polymerase ribozyme fitness (log ratio)” value was -0.855.

For the variant U56C G80U, the “polymerase ribozyme fitness (log ratio)” value was -0.2.

For U56A U61G U134G, the “polymerase ribozyme fitness (log ratio)” value was -3.93.

In the case of C57A G70A U134C, the “polymerase ribozyme fitness (log ratio)” value was -3.65.

For the variant U56A G128A, the “polymerase ribozyme fitness (log ratio)” value is -3.15.

U56A C76U C125U U148G G152U: the “polymerase ribozyme fitness (log ratio)” value was -3.64.

For the variant U56A G81C C87U, the “polymerase ribozyme fitness (log ratio)” value is -1.03.

U56A: the “polymerase ribozyme fitness (log ratio)” value is -0.324.

U56C: the “polymerase ribozyme fitness (log ratio)” value was -0.389.

As for U56G, the “polymerase ribozyme fitness (log ratio)” value is -0.573.

With U56A C114G, the “polymerase ribozyme fitness (log ratio)” value is -3.1.

Regarding U56G G94A U139G, the “polymerase ribozyme fitness (log ratio)” value was -1.18.

U56A U146A: the “polymerase ribozyme fitness (log ratio)” value is -0.732.

Consider U56G C57U G62U A66G C75U G83U, for which the “polymerase ribozyme fitness (log ratio)” value was at most -4.2.

As to U56A G88C A122G C123G, the “polymerase ribozyme fitness (log ratio)” value was at most -4.2.

As for U56G A89C C96A C116G A119C, the “polymerase ribozyme fitness (log ratio)” value is -3.23.

As to U56G G62U C85A A119C C131U, the “polymerase ribozyme fitness (log ratio)” value is -1.78.

As to U56A C69A C79U C93G U151A, the “polymerase ribozyme fitness (log ratio)” value is at most -4.2.

Turning to U56A U82G U139A, the “polymerase ribozyme fitness (log ratio)” value is -4.02.

Consider U55G U90G C123G U134A, for which the “polymerase ribozyme fitness (log ratio)” value is at most -4.2.

C57A A60C C96U C132A: the “polymerase ribozyme fitness (log ratio)” value is -3.83.

Consider U56A G81U C93G, for which the “polymerase ribozyme fitness (log ratio)” value was -3.18.

For U56A G84C A150G, the “polymerase ribozyme fitness (log ratio)” value was -3.39.

For the variant U56C C103G C129U, the “polymerase ribozyme fitness (log ratio)” value was -4.1.

As to U56A C87U U148A, the “polymerase ribozyme fitness (log ratio)” value was -3.33.

As to U56A C76G C85U A91G U111G C118U G140A G143A, the “polymerase ribozyme fitness (log ratio)” value was at most -4.2.

For the variant C57G C85A C118U G143C, the “polymerase ribozyme fitness (log ratio)” value was -4.1.

Turning to U56C A120C C149U, the “polymerase ribozyme fitness (log ratio)” value is -1.17.

Turning to C57A A107U, the “polymerase ribozyme fitness (log ratio)” value was -3.62.

Take U56A A73U C76A A97U: the “polymerase ribozyme fitness (log ratio)” value was at most -4.2.

Consider U56A C95G A98G, for which the “polymerase ribozyme fitness (log ratio)” value was -1.91.

Take U56A G83A: the “polymerase ribozyme fitness (log ratio)” value was -0.831.

As to U56A G86C, the “polymerase ribozyme fitness (log ratio)” value is at most -4.2.

For U56A G86U, the “polymerase ribozyme fitness (log ratio)” value is -0.958.

For the variant C57A C85A A147G, the “polymerase ribozyme fitness (log ratio)” value is -1.09.

Take U56A C75U A121C G128U: the “polymerase ribozyme fitness (log ratio)” value is -2.63.

Regarding U56G G62C A120C C132A U139G, the “polymerase ribozyme fitness (log ratio)” value was at most -4.2.

On to U56A A121C C149G, for which the “polymerase ribozyme fitness (log ratio)” value is -3.14.

Take U56G C57U C96U: the “polymerase ribozyme fitness (log ratio)” value is -0.884.

On to U55G U104A A122G A137C, for which the “polymerase ribozyme fitness (log ratio)” value was at most -4.2.

For C57A C93A A106U A122U, the “polymerase ribozyme fitness (log ratio)” value is -2.85.

In the case of C57G C93U, the “polymerase ribozyme fitness (log ratio)” value was -1.72.

Regarding C57G C95U U102G, the “polymerase ribozyme fitness (log ratio)” value is -2.74.

Take U56A C75U: the “polymerase ribozyme fitness (log ratio)” value is -0.839.

For the variant C57A C132U, the “polymerase ribozyme fitness (log ratio)” value was -0.393.

On to U56A C85U C114A G141C, for which the “polymerase ribozyme fitness (log ratio)” value was at most -4.2.

Take U56A C87U C96U C103G: the “polymerase ribozyme fitness (log ratio)” value was -3.09.

Regarding U56A A60G C79G A119C A121U, the “polymerase ribozyme fitness (log ratio)” value was -3.78.

In the case of U56A G136U, the “polymerase ribozyme fitness (log ratio)” value is -2.72.

Regarding U56A G68A, the “polymerase ribozyme fitness (log ratio)” value was -4.01.

Take U56A U78G G112C U139C: the “polymerase ribozyme fitness (log ratio)” value was at most -4.2.

Regarding U56A G70C G117C, the “polymerase ribozyme fitness (log ratio)” value is -3.79.

Consider C57A G74A, for which the “polymerase ribozyme fitness (log ratio)” value was -2.66.

For the variant U56A G81C G83A C87G A107G A122C G141U, the “polymerase ribozyme fitness (log ratio)” value is at most -4.2.

Turning to U56A G83A C87U, the “polymerase ribozyme fitness (log ratio)” value was -3.83.

In the case of U56A C85U U144C, the “polymerase ribozyme fitness (log ratio)” value is -0.306.

For U56C G83U, the “polymerase ribozyme fitness (log ratio)” value was -0.525.

Turning to U56A U127G, the “polymerase ribozyme fitness (log ratio)” value was -2.83.

Take U56A A106G: the “polymerase ribozyme fitness (log ratio)” value was -0.585.

Consider U56A U135A, for which the “polymerase ribozyme fitness (log ratio)” value is -1.16.
